According to article PMC314469, “Protein Interaction Networks by Proteome Peptide Scanning” (PLoS Biology, 2004):

T1: amphyphisin SH3 (AMPH_HUMAN), P49418
T1 chain: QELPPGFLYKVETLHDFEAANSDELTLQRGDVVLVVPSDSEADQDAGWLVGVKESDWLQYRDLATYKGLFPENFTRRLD


Assays:
[1] = target: endophilin SH3 (SH3G2_HUMAN), Q99962; experiment: SPOT array
[2] = target: T1, amphyphisin SH3 (AMPH_HUMAN), P49418; experiment: SPOT array

| Binder | normalised SPOT signal, Boehringer light units (BLU); mean over the file's lines of this peptide [1] | normalised SPOT signal, Boehringer light units (BLU); mean over the file's lines of this peptide [2] |
| --- | --- | --- |
| ALHVPAKPPRAAAA [Q8WXD9 1334-1348] | 526 | 4080 |
| AAMHPRRPDGFDGL [Q04197 18-31] | 14.1 | 53.6 |
| GKVVPLRPPPPPKS [Q9UHN6 29-43] | 9090 | 499 |
| GKLPPKRPELPPTL [Q9NVN2 625-638] | 205 | 30.7 |
| AKTPLSRPVKRNNA [O43525 89-102] | 149 | 52.6 |
| GIPSPRRPMSNLWL [Q14031 953-966] | 647 | 76.5 |
| GIKSPSKPPGPNRI [Q9Y474 19-33] | 7270 | 53.5 |
| GIRRPEKPPYSYIA [Q12946 16-30] | 864 | 53.1 |
| GLLLLPRPGRPLDL [P13497 12-25] | 88.4 | 97.6 |
| GLGSPERPPKTSPG [Q9H6F5 54-68] | 508 | 122 |
| GIPPPKRPLKVSQK [Q9P2B8 1668-1681] | 687 | 116 |
| ALSHFRRPDVSVQG [Q06265 140-153] | 50.3 | 19.7 |
| GLSTLQRPLKDVTD [Q9H4V5 197-210] | 90.7 | 108 |
| GHRPPGRPRRSPKA [O75866 29-42] | 172 | 1010 |
| GLGGPQKPPPHTEP [Q9H4M7 492-506] | 79.9 | 40.1 |
| GLEVPRRPGARTGP [Q9P1Z1 1-14] | 626 | 29.7 |
| GLLSLRRPAPRRLE [Q9HCE9 329-342] | 504 | 13.3 |
| GLSGPSRPPPPPQA [Q9UEE5 25-39] | 2950 | 78.2 |
| GINAFARPSKMPYV [P40222 168-181] | 96.7 | 105 |
| GKPNPRRPKDKMSA [O95985 843-856] | 87.3 | 13.6 |
| GLGELLRPYRSASS [Q14526 480-493] | 112 | 367 |

Next, values leading:

| normalised SPOT signal, Boehringer light units (BLU); mean over the file's lines of this peptide [1] | normalised SPOT signal, Boehringer light units (BLU); mean over the file's lines of this peptide [2] | Binder |
| --- | --- | --- |
| 285 | 34.9 | GLRRPEKPPYSYIA [Q12947 93-107] |
| 1890 | 2410 | GLPAPLRPERLAPV [O94850 125-138] |
| 34.9 | 32.5 | GLSGLKRPSSSAST [Q9P2Q0 476-489] |
| 35.2 | 32.6 | GKLKLKRPEQLQEV [O15082 431-444] |
| 1860 | 7430 | GKNRPLRPSRRRQL [Q9H5Z2 504-517] |
| 1850 | 8350 | GLWLPRRPARSVGS [Q9H427 273-286] |
| 12.8 | 3.7 | GKRPIKRPAYWRTE [Q9HAH2 675-688] |
| 0 | 45.5 | GKSHPKRPNSQSQH [Q9H6W1 84-97] |
| 4690 | 577 | GHTLPPKPPSPRGT [Q9HBQ2 154-168] |
| 8700 | 2720 | GKGRPDRPARRPSP [Q9ULT2 465-478] |
